Experiment [1] has as its target T1, VEGF-C (human, UniProt P49767 103-227, limits assumed).
T1 construct: The assay protein was probably a processed or mature form; also called vascular endothelial growth factor C
T1 sequence: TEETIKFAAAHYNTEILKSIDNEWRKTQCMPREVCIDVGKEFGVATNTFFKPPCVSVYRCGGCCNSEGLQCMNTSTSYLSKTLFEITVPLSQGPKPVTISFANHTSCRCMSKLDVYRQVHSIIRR
The experiment in a line: BiaCore (SPR); format not described. (SPR reads the build-up and loss of mass on a sensor chip optically.)

In experiment [2] the target is T1, VEGF-C. The experiment in a line: cell-based or functional assay.
Experiment [3] has as its target T1, VEGF-C. As to the kind of experiment: cell-based or functional assay. This is another data set of the same source.
In experiment [4] the target is T2, VEGF-C Dimer (Homodimer of two identical chains. The nature of the dimer linkage is not stated in the passages seen.).
T2 construct: a form of m2; also called dimer form of VEGF-C
T2 chain 1: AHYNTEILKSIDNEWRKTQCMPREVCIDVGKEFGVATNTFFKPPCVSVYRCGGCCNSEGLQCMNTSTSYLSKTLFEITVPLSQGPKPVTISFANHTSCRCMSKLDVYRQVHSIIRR
T2 chain 2: T2 chain 1
As to the kind of experiment: direct binding ELISA, antigen coated as capture antigen, bound VGX-100 detected with rabbit anti-human IgG-HRP, Abs 450 nm. (An ELISA detects its analyte on a solid surface through an enzyme-linked reagent.)

Experiment [5] addresses T3, VEGF-C Monomer.
T3 construct: a form of m2; also called monomer form of VEGF-C
T3 chain: T2 chain 1
Described as above.

B1: VEGF-C antibody VGX-100 (antibody, human IgG1, lambda, V domains shown)
VH: EVRLLESGGGLVQPGGSLRLSCAASGFTFRPRAMAWVRQAPGKGLEWVSSISAQGASAYYADSVKGRFTISRDNSKNTLYLQMNSLRAEDTAVYYCARDLSVSGFGPWGRGTMVTVSS
VL: SYELTQPPSSSGTPGQRVTISCSGSSSNIGRHTVSWYQQVPGTAPKLLIYSDDHRPSGVPDRFSASKSGTSASLTITGLQSEDEADYYCAAWDDSLNGPWVFGGGTKLTVLG
Consider B1, for which binding in experiment [1] was put at a Kd of 1.8 nM. Moreover, the “IC50 (read off the curve); [3H]-thymidine incorporation of BA/F3-VEGFR-2/EpoR cells as percent of ligand alone; blocked: VEGF-C binding to VEGFR-2” value in experiment [2] is about 0.03 µg/mL. Moreover, the “IC50 (read off the curve); [3H]-thymidine incorporation of BA/F3-VEGFR-3/EpoR cells as percent of ligand alone; blocked: VEGF-C binding to VEGFR-3” value in experiment [3] is about 0.04 µg/mL. The concentration for a half-maximal effect (EC50 (read off the curve)) in experiment [4] and in experiment [5] was about 0.001 µg/mL in each case.
